Measured values published in paper PMC10344970.

How the values were obtained:
Assay in all cases: purified protein
[1] = system: CC(C)=CCC/C(C)=C/COP(=O)(O)OP(=O)(O)O; details: co-substrate 1-hydroxynaphthalene (1), 50 mM Tris-HCl, 10 mM CaCl2, 5% DMSO, 37 °C, 15 min, substrate inhibition at 1.0 mM or higher
Oc1ccc2c(O)cccc2c1 = details: co-substrate 1 mM DMAPP, 50 mM Tris-HCl, 10 mM CaCl2, 5% DMSO, 37 °C, 15 min
Oc1ccc2cccc(O)c2c1 = details: co-substrate 1 mM DMAPP, 50 mM Tris-HCl, 10 mM CaCl2, 5% DMSO, 37 °C, 15 min

## ShPT (Stereum hirsutum FP-91666 SS1)
[1]
  Km: 1.01 ± 0.05 mM
  kcat: 0.36 ± 0.01 s⁻¹
  kcat/Km: 357 M⁻¹ s⁻¹
Oc1ccc2c(O)cccc2c1
  Km: 0.66 ± 0.10 mM
  kcat: 0.13 ± 0.01 s⁻¹
  kcat/Km: 197 M⁻¹ s⁻¹
Oc1ccc2cccc(O)c2c1
  Km: 0.92 ± 0.01 mM
  kcat: 0.46 ± 0.04 s⁻¹
  kcat/Km: 511 M⁻¹ s⁻¹
